Laboratory results as given in US20230242675A1 (SHANGHAI EPIMAB BIOTHERAPEUTICS, published 2023).

Experiments:
[1] = molecular target: T1, human PD-L1/His fusion protein (human, UniProt Q9NZQ7 19-239); assay: BLI off-rate; test group 3
Experimental: (§1) Briefly, antibodies were characterized for affinities and binding kinetics by Octet®RED96 biolayer interferometry (Pall ForteBio LLC). Antibodies were captured by Anti-hIgG Fc Capture (AHC) Biosensors (Pall) at a concentration of 100 nM for 30 seconds. Sensors were then dipped into running buffer (1×pH 7.2 PBS, 0.05% Tween 20, 0.1% BSA) for 60 seconds to check baseline. Binding was measured by dipping sensors into a single concentration of recombinant human PD-L1/His fusion protein (Novoprotein). Dissociation was followed by dipping sensors into running buffer for 1200 seconds. The association and dissociation curves were fitted to a 1:1 Langmuir binding model using ForteBio Data Analysis software (Pall). […] The off-rate ratio serves as a data normalization. Accordingly, in each test group, the off-rate ratios of the humanized antibodies can be compared with that of the chimeric antibody, and the off-rate ratios of each of the humanized antibodies can be compared to one another within all test groups.

[2] = molecular target: T1, human PD-L1/His fusion protein; assay: BLI Octet RED96, antibody on AHC sensor, single conc. PD-L1/His; test group 3
Experimental: as §1

[3] = molecular target: T1, human PD-L1/His fusion protein; assay: BLI Octet RED96, antibody on AHC sensor, single conc. PD-L1/His; test group 2
Experimental: as §1, with “All 15 antibodies in Table 13 were assayed for and ranked by dissociation rate constant (koff). […] Briefly,” for “Briefly,”, “check the” for “check”

[4] = molecular target: T1, human PD-L1/His fusion protein; assay: BLI off-rate; test group 2
Experimental: as §1, with “All 15 antibodies in Table 13 were assayed for and ranked by dissociation rate constant (koff). […] Briefly,” for “Briefly,”, “check the” for “check”

[5] = molecular target: T1, human PD-L1/His fusion protein; assay: BLI Octet RED96, antibody on AHC sensor, single conc. PD-L1/His; test group 4
Experimental: as §1

[6] = molecular target: T1, human PD-L1/His fusion protein; assay: BLI off-rate; test group 4
Experimental: as §1

T1 sequence (Q9NZQ7 19-239 limits assumed): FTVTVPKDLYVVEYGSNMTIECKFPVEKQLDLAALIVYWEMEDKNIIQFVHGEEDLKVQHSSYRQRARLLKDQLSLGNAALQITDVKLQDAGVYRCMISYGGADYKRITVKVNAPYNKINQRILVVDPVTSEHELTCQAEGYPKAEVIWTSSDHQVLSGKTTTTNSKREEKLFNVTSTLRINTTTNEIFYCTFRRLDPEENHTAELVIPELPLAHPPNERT

Row | Off-Rate Ratio to that of EM0005-90c [1] [%] | koff [2] [s⁻¹] | koff [5] [s⁻¹] | Off-Rate Ratio to that of EM0005-87c [6] [%] | Binder | also measured
1 | 115 | 0.000439 |  |  | HuEM0005-90-13 (antibody, human IgG1, V domains shown) VH: EVQLVQSGAEVKKPGASVKVSCKASGYTFTSHSINWVRQATGQGLEWMGYMYIGNGYTEYNEKFKGRVTLTSNTSISTAYMELSSLRSEDTAVYYCAKITPVVAPYVMDYWGQGTSVTVSS VL: DIQMTQSPSFLSASVGDRVTITCKASQDVGTAVAWYQQKPGKAPKLLIYWASTRHTGVPDRFTGSGSGTEFTLTISSLQPEDFATYYCQQYSSYPYTFGQGTKLEIK | 
2 |  |  |  |  | HuEM0005-86-7 (antibody, human IgG1, V domains shown) VH: EVQLVQSGAEVKKPGASVKVSCKASGYTFTTYGINWVRQAPGQGLEWIGYIYIGNGYTEYNEKFKGRVTLTSDPSTRTAYMELSSLRSDDTAVYYCARDLMVIAPKTMDYWGQGTTVTVSS VL: DIQMTQSPSSVSASVGDRVTITCKASQDVGTAVAWYQQKPGKAPKLLIYWASTRHTGVPDRFTGSGSGTDFTLTISSLQPEDFATYYCQQYSSYPYTFGGGTKVEIK | koff [3]: 0.00131 s⁻¹; Off-Rate Ratio to that of EM0005-86c [4]: 73%
3 | 98 | 0.000376 |  |  | HuEM0005-90-14 (antibody, human IgG1, V domains shown) VH: EVQLVQSGAEVKKPGASVKVSCKASGYTFTSHSINWVRQATGQGLEWIGYMYIGNGYTEYNEKFKGRATLTSNTSISTAYMELSSLRSEDTAVYYCAKITPVVAPYVMDYWGQGTSVTVSS VL: DIQMTQSPSFLSASVGDRVTITCKASQDVGTAVAWYQQKPGKAPKLLIYWASTRHTGVPDRFTGSGSGTEFTLTISSLQPEDFATYYCQQYSSYPYTFGQGTKLEIK | 
4 | 87 | 0.000334 |  |  | HuEM0005-90-18 (antibody, human IgG1, V domains shown) VH: EVQLVQSGAEVKKPGASVKVSCKASGYTFTSHSINWVRQATGQGLEWIGYMYIGNGYTEYNEKFKGRATLTSNTSISTAYMELSSLRSEDTAVYYCAKITPVVAPYVMDYWGQGTSVTVSS VL: DIVMTQSPSFLSASVGDRVTITCKASQDVGTAVAWYQQKPGKAPKLLIYWASTRHTGVPDRFTGSGSGTDFTLTISSLQPEDFATYYCQQYSSYPYTFGQGTKLEIK | 
5 |  |  | 0.00249 |  | HuEM0005-90-20 (antibody, human IgG1, V domains shown) VH: EVQLVQSGAEVKKPGASVKVSCKTSGYTFTSHSINWVRQATGQGLEWIGYMYIGNGYTEYNEKFKGRATLTSNTSISTAYMELSSLRSEDTAVYYCAKITPVVAPYVMDYWGQGTSVTVSS VL: DIVMTQSPSFLSASVGDRVTITCKASQDVGTAVAWYQQKPGKAPKLLIYWASTRHTGVPDRFTGSGSGTDFTLTISSLQPEDFATYYCQQYSSYPYTFGQGTKLEIK | Off-Rate Ratio to that of EM0005-90c [6]: 111%
6 | 101 | 0.000387 |  |  | HuEM0005-90-16 (antibody, human IgG1, V domains shown) VH: EVQLVQSGAEVKKPGASVKVSCKTSGYTFTSHSINWVRQATGQGLEWIGYMYIGNGYTEYNEKFKGRATLTSNTSISTAYMELSSLRSEDTAVYYCAKITPVVAPYVMDYWGQGTSVTVSS VL: DIQMTQSPSFLSASVGDRVTITCKASQDVGTAVAWYQQKPGKAPKLLIYWASTRHTGVPDRFTGSGSGTEFTLTISSLQPEDFATYYCQQYSSYPYTFGQGTKLEIK | 
7 |  |  |  |  | HuEM0005-86-8 (antibody, human IgG1, V domains shown) VH: EVQLVQSGAEVKKPGASVKVSCKASGYTFTTYGINWVRQAPGQGLEWMGYIYIGNGYTEYNEKFKGRVTMTTDTSTSTAYMELSSLRSDDTAVYYCARDLMVIAPKTMDYWGQGTTVTVSS VL: DIQMTQSPSSVSASVGDRVTITCKASQDVGTAVAWYQQKPGKSPKLLIYWASTRHTGVPDRFTGSGSGTDFTLTISSLQPEDFATYFCQQYSSYPYTFGGGTKVEIK | koff [3]: 0.00155 s⁻¹; Off-Rate Ratio to that of EM0005-86c [4]: 87%
8 | 106 | 0.000405 |  |  | HuEM0005-90-17 (antibody, human IgG1, V domains shown) VH: EVQLVQSGAEVKKPGASVKVSCKASGYTFTSHSINWVRQATGQGLEWMGYMYIGNGYTEYNEKFKGRVTLTSNTSISTAYMELSSLRSEDTAVYYCAKITPVVAPYVMDYWGQGTSVTVSS VL: DIVMTQSPSFLSASVGDRVTITCKASQDVGTAVAWYQQKPGKAPKLLIYWASTRHTGVPDRFTGSGSGTDFTLTISSLQPEDFATYYCQQYSSYPYTFGQGTKLEIK | 
9 | 131 | 0.000499 |  |  | HuEM0005-90-15 (antibody, human IgG1, V domains shown) VH: EVQLVQSGAEVKKPGASVKVSCKTSGYTFTSHSINWVRQATGQGLEWMGYMYIGNGYTEYNEKFKGRVTMTSNTSISTAYMELSSLRSEDTAVYYCAKITPVVAPYVMDYWGQGTSVTVSS VL: DIQMTQSPSFLSASVGDRVTITCKASQDVGTAVAWYQQKPGKAPKLLIYWASTRHTGVPDRFTGSGSGTEFTLTISSLQPEDFATYYCQQYSSYPYTFGQGTKLEIK | 
10 |  |  | 0.000782 | 87 | HuEM0005-87-19 (antibody, human IgG1, V domains shown) VH: EVQLVQSGAEVKKPGASVKVSCKASGYSFTDYYINWVRQAPGQGLEWIGETIPNTGGTTYNQKFKAKATLTVDKSTSTAYMELSSLRSEDTAVYYCARYQSGSPFAYWGQGTTVTVSS VL: EIVMTQSPATLSVSPGERATLSCKASQNVGTAVAWYQQKPGQAPRLLIYSASNRYTGVPDRFTGSGSGTEFTLTISSLQSEDFAVYYCQQHYSTPYTFGGGTKLEIK | 
11 |  |  | 0.000522 | 58 | HuEM0005-87-21 (antibody, human IgG1, V domains shown) VH: EVQLVQSGAEVKKPGASVKVSCKASGYTFTDYYINWVRQAPGQGLEWMGETIPNTGGTTYNQKFKARVTMTVDTSTSTVYMELSSLRSEDTAVYYCARYQSGSPFAYWGQGTTVTVSS VL: DIVMTQSPATLSVSPGERATLSCKASQNVGTAVAWYQQKPGQAPRLLIYSASNRYTGVPDRFTGSGSGTDFTLTISSLQSEDFAVYYCQQHYSTPYTFGGGTKLEIK | 
12 |  |  | 0.000905 | 101 | HuEM0005-87-23 (antibody, human IgG1, V domains shown) VH: EVQLVQSGAEVKKPGASVKVSCKASGYTFTDYYINWVRQAPGQGLEWIGETIPNTGGTTYNQKFKARVTLTVDKSTSTVYMELSSLRSEDTAVYYCARYQSGSPFAYWGQGTTVTVSS VL: DIVMTQSPATLSVSPGERATLSCKASQNVGTAVAWYQQKPGQAPRLLIYSASNRYTGVPDRFTGSGSGTDFTLTISSLQSEDFAVYYCQQHYSTPYTFGGGTKLEIK | 
13 |  |  | 0.00101 | 113 | HuEM0005-87-24 (antibody, human IgG1, V domains shown) VH: EVQLVQSGAEVKKPGASVKVSCKASGYSFTDYYINWVRQAPGQGLEWIGETIPNTGGTTYNQKFKAKATLTVDKSTSTAYMELSSLRSEDTAVYYCARYQSGSPFAYWGQGTTVTVSS VL: DIVMTQSPATLSVSPGERATLSCKASQNVGTAVAWYQQKPGQAPRLLIYSASNRYTGVPDRFTGSGSGTDFTLTISSLQSEDFAVYYCQQHYSTPYTFGGGTKLEIK | 
14 |  |  | 0.000738 | 82 | HuEM0005-87-22 (antibody, human IgG1, V domains shown) VH: EVQLVQSGAEVKKPGASVKVSCKASGYTFTDYYINWVRQAPGQGLEWMGETIPNTGGTTYNQKFKARVTLTVDTSTSTVYMELSSLRSEDTAVYYCARYQSGSPFAYWGQGTTVTVSS VL: DIVMTQSPATLSVSPGERATLSCKASQNVGTAVAWYQQKPGQAPRLLIYSASNRYTGVPDRFTGSGSGTDFTLTISSLQSEDFAVYYCQQHYSTPYTFGGGTKLEIK | 
15 |  |  | 0.000801 | 89 | HuEM0005-87-20 (antibody, human IgG1, V domains shown) VH: EVQLVQSGAEVKKPGASVKVSCKASGYSFTDYYINWVKQAPGQGLEWIGETIPNTGGTTYNQKFKAKATLTRDKSTSTAYMELKSLRSEDTAVYYCARYQSGSPFAYWGQGTTVTVSS VL: EIVMTQSPATLSVSPGERATLSCKASQNVGTAVAWYQQKPGQAPRLLIYSASNRYTGVPDRFTGSGSGTEFTLTISSLQSEDFAVYYCQQHYSTPYTFGGGTKLEIK | 
16 |  |  | 0.00255 |  | EM0005-90c(G55A) (antibody, human IgG1, V domains shown, Chimeric antibody with G55A in CDR-H2; also called HuEM0005-90C-G55A) VH: QVQLKQSGAELVRPGSSVKMSCKTSGYTFTSHSINWVKQRPGQGLEWIGYMYIGNAYTEYNEKFKGKATLTSDTSSTTAYMQLSSLTSEDSAIYFCAKITPVVAPYVMDYWGQGTSVTVSS VL: DIVMTQTHKFMSTSVGDRVSITCKASQDVGTAVAWYQQKPGQSPKLLIYWASTRHTGVPDRFTGSGSGTDFTLTISNVQSEDLADYFCQQYSSYPYTFGGGTKLELK | Off-Rate Ratio to that of EM0005-90c [6]: 113%
